One series deals with His-PABP-RRM1-4 (mouse, UniProt P29341 1-375). Kind of series: EMSA; EMSA: 10 mM Tris-HCl pH 7.8, 100 mM NaCl, 1 mM EDTA, 2% ficoll, 30 min on ice; blot: 10 mM Tris-HCl pH 7.5, 5 mM KCl, 2 mM MgCl2, room temperature; poly(U): 10. Conditions: protein: recombinant; tags: His; label: 5' 32P; single strand.
The target in the next series is T1, GST-Pdcd4 wt (human, UniProt Q53EL6 1-469).
T1 sequence: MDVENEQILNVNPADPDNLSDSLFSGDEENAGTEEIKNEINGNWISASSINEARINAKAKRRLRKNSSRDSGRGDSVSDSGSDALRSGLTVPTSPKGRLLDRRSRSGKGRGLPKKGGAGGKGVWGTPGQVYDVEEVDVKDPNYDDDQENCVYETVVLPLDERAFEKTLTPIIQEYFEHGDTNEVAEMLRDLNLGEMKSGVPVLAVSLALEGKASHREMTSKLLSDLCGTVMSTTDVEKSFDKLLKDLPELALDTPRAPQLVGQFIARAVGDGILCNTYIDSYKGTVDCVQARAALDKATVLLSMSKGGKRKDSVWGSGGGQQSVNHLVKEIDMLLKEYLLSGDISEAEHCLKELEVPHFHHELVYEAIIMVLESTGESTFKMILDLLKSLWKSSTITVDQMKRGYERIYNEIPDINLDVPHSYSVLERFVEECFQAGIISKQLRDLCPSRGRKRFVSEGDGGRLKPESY
The description is as above. To be noted: protein: recombinant; tags: GST; label: 5' 32P; single strand.

The source of these data is article PMC4176178, “An evolutionarily conserved interaction of tumor suppressor protein Pdcd4 with the poly(A)-binding protein contributes to translation suppression by Pdcd4”.

His-PABP-RRM1-4, sequence (P29341 1-375): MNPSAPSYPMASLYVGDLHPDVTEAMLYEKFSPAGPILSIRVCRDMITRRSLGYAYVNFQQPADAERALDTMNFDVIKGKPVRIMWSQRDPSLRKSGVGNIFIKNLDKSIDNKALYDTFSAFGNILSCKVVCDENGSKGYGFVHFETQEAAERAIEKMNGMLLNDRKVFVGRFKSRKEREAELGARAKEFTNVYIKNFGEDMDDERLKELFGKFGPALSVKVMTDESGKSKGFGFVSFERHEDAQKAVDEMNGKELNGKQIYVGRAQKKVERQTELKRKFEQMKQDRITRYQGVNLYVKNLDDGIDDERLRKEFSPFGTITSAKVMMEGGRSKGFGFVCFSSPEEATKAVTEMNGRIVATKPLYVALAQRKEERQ

Turning to AAAAAAAAAAAAAAAAAAAAAAAAA (ssRNA) [oligo(A)25], the binding result with His-PABP-RRM1-4 is reported as “binds”; with GST-Pdcd4 wt it was “no binding”.
